Reference: US20180134794A1 (Regeneron, published 2018)

Biological target: human MET (c-Met, hepatocyte growth factor receptor), endogenous on human cell lines (human, UniProt P08581 25-1390)
Experiment: cell-based or functional assay
Wherever % Inhibition (HEK293/SRE-Luc Blocking Activity, 1 h mAb pre-bind) is given: test concentration or dose not given here.

Sequence of human MET (c-Met, hepatocyte growth factor receptor), endogenous on human cell lines (P08581 25-1390 limits assumed, form in doubt): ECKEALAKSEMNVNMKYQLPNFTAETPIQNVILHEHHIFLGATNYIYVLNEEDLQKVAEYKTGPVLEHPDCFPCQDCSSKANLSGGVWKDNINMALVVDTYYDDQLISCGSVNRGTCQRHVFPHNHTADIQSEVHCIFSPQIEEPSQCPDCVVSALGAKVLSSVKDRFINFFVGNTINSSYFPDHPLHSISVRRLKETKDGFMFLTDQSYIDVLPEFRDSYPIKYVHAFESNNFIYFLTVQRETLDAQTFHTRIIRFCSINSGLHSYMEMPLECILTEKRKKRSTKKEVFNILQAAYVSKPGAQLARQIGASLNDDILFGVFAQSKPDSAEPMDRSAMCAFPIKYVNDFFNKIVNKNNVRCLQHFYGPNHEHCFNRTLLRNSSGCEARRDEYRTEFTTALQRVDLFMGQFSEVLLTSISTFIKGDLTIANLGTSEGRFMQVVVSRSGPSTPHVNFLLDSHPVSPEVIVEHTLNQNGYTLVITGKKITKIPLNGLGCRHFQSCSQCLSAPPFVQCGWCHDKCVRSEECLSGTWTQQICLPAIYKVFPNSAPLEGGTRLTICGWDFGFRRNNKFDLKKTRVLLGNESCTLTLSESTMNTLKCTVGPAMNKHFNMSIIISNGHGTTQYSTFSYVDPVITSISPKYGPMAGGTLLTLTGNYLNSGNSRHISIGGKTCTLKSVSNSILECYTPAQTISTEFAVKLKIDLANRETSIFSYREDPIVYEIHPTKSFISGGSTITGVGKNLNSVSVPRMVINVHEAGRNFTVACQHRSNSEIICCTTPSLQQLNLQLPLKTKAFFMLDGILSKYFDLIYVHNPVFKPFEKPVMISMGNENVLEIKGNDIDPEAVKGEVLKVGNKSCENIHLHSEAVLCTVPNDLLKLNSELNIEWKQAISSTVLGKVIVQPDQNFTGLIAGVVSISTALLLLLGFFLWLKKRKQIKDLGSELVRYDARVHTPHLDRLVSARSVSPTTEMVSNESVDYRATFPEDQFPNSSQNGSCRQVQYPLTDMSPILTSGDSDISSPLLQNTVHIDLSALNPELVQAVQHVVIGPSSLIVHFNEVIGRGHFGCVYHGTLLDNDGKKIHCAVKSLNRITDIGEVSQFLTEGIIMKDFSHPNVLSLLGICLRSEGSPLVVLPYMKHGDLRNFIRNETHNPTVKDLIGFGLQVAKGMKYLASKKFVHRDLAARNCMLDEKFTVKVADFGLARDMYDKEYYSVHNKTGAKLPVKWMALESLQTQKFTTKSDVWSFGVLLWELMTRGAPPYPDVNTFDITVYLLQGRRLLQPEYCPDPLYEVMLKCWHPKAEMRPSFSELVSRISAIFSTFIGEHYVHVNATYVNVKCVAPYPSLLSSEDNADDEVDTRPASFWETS

Binder | % Inhibition (HEK293/SRE-Luc Blocking Activity, 1 h mAb pre-bind) | Fold Response (Ligand (HGF)-Independent HEK293/SRE-Luc Activation) | IC50 (HEK293/SRE-Luc Blocking Activity, 1 h mAb pre-bind) | EC50 (Ligand (HGF)-Independent HEK293/SRE-Luc Activation)
H1H13301P2 (antibody, V domains shown) VH: QVQLVESGGGVVQPGTSLRLSCVASGFTFRNFGMHWVRQAPGKGLEWVANIWFDGSNENYVESIQGRFTISRDNSKNTLNLQMNSLRAEDSAVYYCVREGILGTTNPYDAFDVWGQGTMVTVSS VL: not shown | 42% | 1.4 fold | 3.3 nM | –
H4H13301P2 (antibody, human IgG4, V domains shown) VH: QVQLVESGGGVVQPGTSLRLSCVASGFTFRNFGMHWVRQAPGKGLEWVANIWFDGSNENYVESIQGRFTISRDNSKNTLNLQMNSLRAEDSAVYYCVREGILGTTNPYDAFDVWGQGTMVTVSS VL: not shown | 40% | 1.6 fold | 1.5 nM | –
H1H13316P2 (antibody, V domains shown) VH: EVQLVESGGGLVQPGGSLRLSCAASGFTFRSYVMSWFRQAPGKGLEWVSGMSGSGGSTSYADSVKGRFTISRDNSKNTLYLLMNSLRTEDTAVYYCAKENGANWNYGYYGMDVWGQGTTVTVSS VL: not shown | 86% | 1.7 fold | 0.04 nM | –
H4H13316P2 (antibody, human IgG4, V domains shown) VH: EVQLVESGGGLVQPGGSLRLSCAASGFTFRSYVMSWFRQAPGKGLEWVSGMSGSGGSTSYADSVKGRFTISRDNSKNTLYLLMNSLRTEDTAVYYCAKENGANWNYGYYGMDVWGQGTTVTVSS VL: not shown | 74% | 2.3 fold | 0.0078 nM | 0.047 nM
H4H13313P2 (antibody, human IgG4, V domains shown) VH: QVQLVESGGGVVQPGRSLRLSCSASGFSFSHFGMHWVRQVPGGGLEWVTSIWFDGSNRYYADSLKGRFTISRDNSKNTLYLEMNSLRAEDTAVYYCVREGILGTTNPYDVFDVWGQGTMVTVSS VL: not shown | 47% | 1.2 fold | 2.3 nM | –
H4H13325P2 (antibody, human IgG4, V domains shown) VH: EVQLLESGGGWVQPGGSLRLSCAASGFAFSNYAMNWVRQTPGKGLEWVSVISSSGGNTYYADSVKGRFAISRDNSRDTLHLQMNRLRVEDTAVYYCAKEIRPYYDLSYYYGMDVWGQGTTVTVSS VL: not shown | 69% | 4.3 fold | 0.013 nM | 0.19 nM
H4H14638D (bispecific antibody, human IgG4, V domains shown) VH 1: QVQLVESGGGVVQPGRSLRLSCAASGFTFSNFGMHWVRQAPGKGLEWVAGIWFDGSNKNYIDSVKGRFTISRDNSKNTLYLQMNSLRAEDTAVYYCAREGYDSGTDYIPYDIFDIWGQGTMVTVSS VH 2: EVQLVESGGGLVQPGGSLRLSCAASGFIVTTNYMTWLRQAPGKGLEWVSLIYSSGHTYYADSVKGRFTISRHNSKNTLYLQMDSLRAEDTAVYYCASAFAADVFDIWGQGTMVTVSS VL: not shown | 79% | 2.6 fold | 1.1 nM | 5.9 nM
H4H16446D (bispecific antibody, human IgG4, V domains shown) VH 1: QVQLVESGGGVVQPGRSLRLSCAVSGFTFSSYGMHWVRQAPGKGLEWVANIWYDGTNDYYPYSVKGRFTISRDNSQNTLYLQMNSLRAEDTAVYYCAREDFINYRSFDYWGQGTLVTVSS VH 2: EVQLVESGGGLVQPGGSLRLSCAASGFIVTTNYMTWLRQAPGKGLEWVSLIYSSGHTYYADSVKGRFTISRHNSKNTLYLQMDSLRAEDTAVYYCASAFAADVFDIWGQGTMVTVSS VL: not shown | 83% | 4 fold | 1 nM | 1.4 nM
H4H14637D (bispecific antibody, human IgG4, V domains shown) VH 1: QVQLVESGGGVVQPGTSLRLSCVASGFTFRNFGMHWVRQAPGKGLEWVANIWFDGSNENYVESIQGRFTISRDNSKNTLNLQMNSLRAEDSAVYYCVREGILGTTNPYDAFDVWGQGTMVTVSS VH 2: EVQLVESGGGLVQPGGSLRLSCAASGFIVTTNYMTWLRQAPGKGLEWVSLIYSSGHTYYADSVKGRFTISRHNSKNTLYLQMDSLRAEDTAVYYCASAFAADVFDIWGQGTMVTVSS VL: not shown | 73% | 2.1 fold | – | 4.1 nM
H4H14636D (bispecific antibody, human IgG4, V domains shown) VH 1: EVQLVESGGGLVQPGGSLRLSCAASGFIFSNYEMNWVRQAPGKGLEWISYITSSGNMKYYADSVKGRFTISRDNDKNSLYLQMSSLRVEDTAVYYCVRGGRFLEWLTYYVMVVWGQGTTVTVSS VH 2: EVQLVESGGGLVQPGGSLRLSCAASGFIVTTNYMTWLRQAPGKGLEWVSLIYSSGHTYYADSVKGRFTISRHNSKNTLYLQMDSLRAEDTAVYYCASAFAADVFDIWGQGTMVTVSS VL: not shown | 74% | 2.8 fold | – | 0.28 nM
H4H14641D (bispecific antibody, human IgG4, V domains shown) VH 1: QVQLVESGGGVVQPGRSLRLSCSASGFSFSHFGMHWVRQVPGGGLEWVTSIWFDGSNRYYADSLKGRFTISRDNSKNTLYLEMNSLRAEDTAVYYCVREGILGTTNPYDVFDVWGQGTMVTVSS VH 2: EVQLVESGGGLVQPGGSLRLSCAASGFIVTTNYMTWLRQAPGKGLEWVSLIYSSGHTYYADSVKGRFTISRHNSKNTLYLQMDSLRAEDTAVYYCASAFAADVFDIWGQGTMVTVSS VL: not shown | 75% | 4.4 fold | 2.7 nM | 84 nM
H4H13302P2 (antibody, human IgG4, V domains shown) VH: QVQLVESGGGVVQPGRSLRLSCAASGFTFSNFGMHWVRQAPGKGLEWVAGIWFDGSNKNYIDSVKGRFTISRDNSKNTLYLQMNSLRAEDTAVYYCAREGYDSGTDYIPYDIFDIWGQGTMVTVSS VL: not shown | 45% | 1.8 fold | 1.6 nM | –
H4H16449D (bispecific antibody, human IgG4, V domains shown) VH 1: QVQLVESGGGVVQPGRSLRLSCAASGFTFSSFAMHWVRQAPGKGLEWVAVIWYDGSNDYYAASVKGRFTISRDNSKNTLYLEMNRLRAEDTAVYHCARDNWNYWGGMDVWGQGTTVTVSS VH 2: EVQLVESGGGLVQPGGSLRLSCAASGFIVTTNYMTWLRQAPGKGLEWVSLIYSSGHTYYADSVKGRFTISRHNSKNTLYLQMDSLRAEDTAVYYCASAFAADVFDIWGQGTMVTVSS VL: not shown | 85% | 4.2 fold | 0.32 nM | 0.42 nM
H4H16445D (bispecific antibody, human IgG4, V domains shown) VH 1: QVQLVESGGGVVQPGGSLRLSCAASGFTFSGYGMHWVRQAPGKGLEWMAVIWYDGSNDYYPDSVKGRFTISRDNSKNTLYLQMNSLRVEDTAVYYCARDAWDLLRSFDYWGQGTLVTVSS VH 2: EVQLVESGGGLVQPGGSLRLSCAASGFIVTTNYMTWLRQAPGKGLEWVSLIYSSGHTYYADSVKGRFTISRHNSKNTLYLQMDSLRAEDTAVYYCASAFAADVFDIWGQGTMVTVSS VL: not shown | 81% | 4.3 fold | 0.52 nM | 1 nM
H4H16447D (bispecific antibody, human IgG4, V domains shown) VH 1: QVQLVESGGGVVQPGRSLRLSCAASGFTFSSYAMHWVRQAPGRGLEWVAVIWHDGDVEYYVDSVKDRFTISRDNSKSTLYLQMNSLRAEDTALYYCAREAWDLLRPFDYWGQGTLVTVSS VH 2: EVQLVESGGGLVQPGGSLRLSCAASGFIVTTNYMTWLRQAPGKGLEWVSLIYSSGHTYYADSVKGRFTISRHNSKNTLYLQMDSLRAEDTAVYYCASAFAADVFDIWGQGTMVTVSS VL: not shown | 76% | – | – | 1.4 nM
H4H13312P2 (antibody, human IgG4, V domains shown) VH: EVQLVESGGGLVQPGGSLRLSCAASGFIVTTNYMTWLRQAPGKGLEWVSLIYSSGHTYYADSVKGRFTISRHNSKNTLYLQMDSLRAEDTAVYYCASAFAADVFDIWGQGTMVTVSS VL: not shown | 48% | – | – | 0.12 nM
H4H16448D (bispecific antibody, human IgG4, V domains shown) VH 1: QVQLVESGGGVVQPGRSLRLSCVASGFSFSNFGMHWVRQAPGKGLEWVAIIWYDGSNKYYSDSVKGRFTISRDNSKNTLYLQMNSLRVDDTAVYYCARFDRWKFDAFDIWGQGTMVTVSS VH 2: EVQLVESGGGLVQPGGSLRLSCAASGFIVTTNYMTWLRQAPGKGLEWVSLIYSSGHTYYADSVKGRFTISRHNSKNTLYLQMDSLRAEDTAVYYCASAFAADVFDIWGQGTMVTVSS VL: not shown | 87% | 4.3 fold | 0.62 nM | 0.91 nM
